This is an account of results in publication PMC314469, “Protein Interaction Networks by Proteome Peptide Scanning” (PLoS Biology, 2004).

B1: 176-189 transcriptional activator of the SKN7 mediated 'two-component' regulatory system (peptide)
chain: TTAPRGPKKAQPAQ
B2: 17-30 Hypothetical ORF (peptide)
chain: WSYPYEPLRVLQVG
B3: 381-394 MAL-activator protein (peptide)
chain: VHGPGIPMKSLEVA
B4: 210-223 Hypothetical ORF (peptide)
chain: TLIPPIPEKQSIKN
B5: 59-72 ubiquitin-conjugating enzyme (peptide)
chain: TDYPFKPPKISFTT
B6: 36-49 neutral trehalase (peptide)
chain: YGPPTDPRKQKQAK
B7: 155-168 Contains a Rho-GAP domain and two LIM domains. Has strong similarity to Rga1p. Has some similarity to all known Rho-GAPs (peptide)
chain: VKRPLSPTRINGKS
B8: 572-585 Glutamate synthase (NADPH) (peptide)
chain: TNPPIDPIREANVM
B9: 181-194 integral membrane protein (peptide)
chain: VTVPKLPFKLAVNK
B10: 95-108 Product of gene unknown (peptide)
chain: VVIPPVPSRYSDER
B11: 910-923 159-kDa nucleoporin with coiled-coil domain and repeated motifs typical of nucleoporins (peptide)
chain: VENPFLPAKEERTG
B12: 472-485 " Anti-silencing protein, involved in transcription" (peptide)
chain: TDSPQLPSKDKSQE
B13: 151-164 similar to ubiquitin activating enzyme (E1) (peptide)
chain: YMQPIIPGKTESFE
B14: 384-397 DNA ligase (peptide)
chain: TLRPGIPLKPMLAK
B15: 347-360 Hypothetical ORF (peptide)
chain: TTRPAPPSKAKDVA
B16: 120-133 soluble tyrosine-specific protein phosphatase (peptide)
chain: VDPPFMPFRDAGYS
B17: 872-885 Urea amidolyase (contains urea carboxylase and allophanate hydrolase) (peptide)
chain: TPAPNLPEKTRLAL
B18: 125-138 Hypothetical ORF (peptide)
chain: YILPKNPFRVPSEM
B19: 1275-1288 Glutamate synthase (NADPH) (peptide)
chain: VIRPGVPTKFTKKQ
B20: 758-771 Hypothetical ORF (peptide)
chain: SSTPTTPERPKRKS
B21: 143-156 Hypothetical ORF (peptide)
chain: VQQPEDPLRVLGEY
B22: 519-532 putative zinc finger protein (peptide)
chain: TKTPTQPIRLQTVS
B23: 142-155 ubiquitin-mediated 26S proteasome subunit (peptide)
chain: VSDPYVPTRNTFNY
B24: 741-754 P-type ATPase (peptide)
chain: VSIPFDPSKDTFDH
B25: 114-127 Centractin (peptide)
chain: TEAPMNPLKNREQM
B26: 659-672 Ubiquitin-specific protease (peptide)
chain: VPPPNVPKKDKREV
B27: 463-476 global regulator of transcription (peptide)
chain: TKVPSKPDRNSKIL
B28: 146-159 (putative) involved in cell wall biogenesis (peptide)
chain: VVSPSHPFKQLQKI
B29: 510-523 cytochrome P450 lanosterol 14a-demethylase (peptide)
chain: VTLPTGPAKIIWEK
B30: 28-41 (putative) cell cycle exonuclease (peptide)
chain: SSRPTSPVRKARST
B31: 54-67 Hypothetical ORF (peptide)
chain: TSAPDIPPRSPNRN
B32: 102-115 Hypothetical ORF (peptide)
chain: TPPPVEPLKTKDLA
B33: 326-339 putative calcium channel (peptide)
chain: VFSPTNPLRIKIAR
B34: 48-61 Phenylacrylic acid decarboxylase (peptide)
chain: STSPPRPKRIVVAI
B35: 507-520 involved in cell wall biogenesis (peptide)
chain: YKIPVVPPRETYFA
B36: 95-108 Translation initiation factor eIF-2B epsilon subunit (peptide)
chain: WNLPWSPFKITTIM
B37: 70-83 Hypothetical ORF (peptide)
chain: VTLPISPSRASISF
B38: 535-548 " cytoskeletal protein, similar to arrestins" (peptide)
chain: VETPPKPIKKDVRF
B39: 9-22 cox1 pre-mRNA splicing factor (peptide)
chain: VSTPPVPKKFQEIF
B40: 568-581 negative regulator of prp genes (peptide)
chain: TEVPSKPKKPSKTE
B41: 386-399 MAL-activator protein (peptide)
chain: VHGPGVPVKTLEIA
B42: 507-520 serine/threonine protein kinase (peptide)
chain: THAPTTPNRTSPNR
B43: 1667-1680 GTPase activating protein (peptide)
chain: TNYPVNPEKHEMDK
B44: 502-515 Ubiquitin-specific protease (peptide)
chain: WKPPDLPIRLRKRP
B45: 34-47 Hypothetical ORF (peptide)
chain: TRRPHHPLKQQSTN
B46: 663-676 Hypothetical ORF (peptide)
chain: VLEPSKPYKKNPFM
B47: 109-122 actin-related protein (peptide)
chain: TEPPMNPLKNREKM
B48: 478-491 TATA binding protein-associated factor (TAF) (peptide)
chain: VFLPTAPSKHMDFA
B49: 375-388 Weak similarity to Pta1p (pre-tRNA processing protein) (peptide)
chain: VDAPINPTKILTFI
B50: 158-171 DNA replication helicase (peptide)
chain: SSTPIVPNRLKTVL
B51: 247-260 Glycine-threonine-serine repeat protein (peptide)
chain: TSTPPLPRRRATTS
B52: 643-656 Ubiquitin-protein ligase (peptide)
chain: VHDPNIPLRPKEII
B53: 86-99 Member of ubiquitin-conjugating protein family (peptide)
chain: SSYPMNPPKISFMQ
B54: 43-56 (putative) histone deacetylase (peptide)
chain: VKHPMKPFRLMLTD
B55: 59-72 ubiquitin-conjugating enzyme (peptide)
chain: TDYPFKPPKVNFTT

The target in this assay is Sho1 SH3 (SHO1_YEAST), P40073. The assay is described as follows: SPOT array.
Chain of Sho1 SH3 (SHO1_YEAST), P40073 (P40073 295-366): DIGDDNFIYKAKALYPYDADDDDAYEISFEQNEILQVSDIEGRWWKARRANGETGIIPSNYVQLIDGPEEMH
Turning to B1, the normalised SPOT signal, Boehringer light units (BLU); mean over the file's lines of this peptide turned out to be 45.2.
In turn, B2 had a normalised SPOT signal, Boehringer light units (BLU); mean over the file's lines of this peptide of 898.
Under B3 stands 198; under B4, 86.6.
The molecule B5 returned a normalised SPOT signal, Boehringer light units (BLU); mean over the file's lines of this peptide of 178.
In turn, B6 yielded a normalised SPOT signal, Boehringer light units (BLU); mean over the file's lines of this peptide of 198.
As to B7, the normalised SPOT signal, Boehringer light units (BLU); mean over the file's lines of this peptide is 160.
Turning to B8, the normalised SPOT signal, Boehringer light units (BLU); mean over the file's lines of this peptide amounted to 0.
Take B9: the normalised SPOT signal, Boehringer light units (BLU); mean over the file's lines of this peptide was 129.
B10 gave a normalised SPOT signal, Boehringer light units (BLU); mean over the file's lines of this peptide of 58.
On to B11, for which the normalised SPOT signal, Boehringer light units (BLU); mean over the file's lines of this peptide amounted to 157.
B12: the normalised SPOT signal, Boehringer light units (BLU); mean over the file's lines of this peptide worked out at 81.7.
Under B13 stands 165.
Regarding B14, the normalised SPOT signal, Boehringer light units (BLU); mean over the file's lines of this peptide came out at 452.
Under B15 stands 763.
Molecule B16 had a normalised SPOT signal, Boehringer light units (BLU); mean over the file's lines of this peptide of -0.
As to B17, the normalised SPOT signal, Boehringer light units (BLU); mean over the file's lines of this peptide turned out to be 60.9.
Molecule B18 displayed a normalised SPOT signal, Boehringer light units (BLU); mean over the file's lines of this peptide of 290.
Molecule B19 came in with a normalised SPOT signal, Boehringer light units (BLU); mean over the file's lines of this peptide of 513.
As for B20, the normalised SPOT signal, Boehringer light units (BLU); mean over the file's lines of this peptide stood at 214.
Molecule B21 yielded a normalised SPOT signal, Boehringer light units (BLU); mean over the file's lines of this peptide of 128.
Then B22, with 40.1; and B23, with 392.
B24: the normalised SPOT signal, Boehringer light units (BLU); mean over the file's lines of this peptide worked out at 94.6.
Under B25 stands 132; under B26, 11300; under B27, 132.
Take B28: the normalised SPOT signal, Boehringer light units (BLU); mean over the file's lines of this peptide amounted to 150.
B29 displayed a normalised SPOT signal, Boehringer light units (BLU); mean over the file's lines of this peptide of 136.
Molecule B30 had a normalised SPOT signal, Boehringer light units (BLU); mean over the file's lines of this peptide of 102.
Then B31, with 107.
Then B32, with 128; and B33, with 102.
Under B34 stands 115; under B35, 195; under B36, 1240.
Turning to B37, the normalised SPOT signal, Boehringer light units (BLU); mean over the file's lines of this peptide stood at 120.
The molecule B38 had a normalised SPOT signal, Boehringer light units (BLU); mean over the file's lines of this peptide of 8540.
Then B39, with 235.
Then B40, with 79.6; and B41, with 88; and B42, with 60.5.
B43: the normalised SPOT signal, Boehringer light units (BLU); mean over the file's lines of this peptide was determined as 29.3.
Under B44 stands 3660; under B45, 177.
For B46, the normalised SPOT signal, Boehringer light units (BLU); mean over the file's lines of this peptide came out at 121.
Then B47, with 138.
B48 registered a normalised SPOT signal, Boehringer light units (BLU); mean over the file's lines of this peptide of 342.
Molecule B49 registered a normalised SPOT signal, Boehringer light units (BLU); mean over the file's lines of this peptide of 174.
Molecule B50 gave a normalised SPOT signal, Boehringer light units (BLU); mean over the file's lines of this peptide of 161.
The molecule B51 had a normalised SPOT signal, Boehringer light units (BLU); mean over the file's lines of this peptide of 366.
Then B52, with 128; and B53, with 73.5.
Then B54, with 691; and B55, with 74.8.
